Patent publication US20210113687A1, “METHODS FOR TREATING INFLAMMATION” (NEW YORK UNIVERSITY, priority 2013, published 2021)

Tested on: BMDM
Experiment: qRT-PCR of BMDM (palmitate, cytokines, adipocyte conditioned media)
Assay type: cell-based, mouse
Conditions: direct addition of cytokine
Method: Real-time Quantitative RT-PCR Analysis RNA (0.5-1 μg) was reverse transcribed using iScript™ cDNA Synthesis Kit (Biorad) and RT-PCR analysis was conducted using kapa SYBR green Supermix (kappa syber) and a Mastercycler Realplex (Eppendorf) the primers used are listed. Fold change in mRNA expression was calculated using the comparative cycle method (ΔΔCt).
Cell culture. Primary bone marrow derived macrophage (BMDM) was prepared by flushing the bone marrow of the tibia and femur of 6-8 week old C57/B6 mice. The cells were grown in DMEM supplemented with 15% L929-conditioned media, 10% FBS and 1% penicillin/streptomycin for 7 days. BMDM were stimulated 250 pM palmitate conjugated with BSA or BSA as a control for 24 hours, or TNFα (10 ng/ml, 410-MT-010; R&D systems), IL-6 (40 nglml, 406-ML-005; R&D systems) and IL-4 (1 Onglml, 404-ML-010; R&D systems) for 24 h. In some assays, differentiated BMDM were treated with conditioned media from 3T3-L1 adipocytes differentiated as described (Lin, et al., J Biol Chem, 2005; 280:4617-4626) and treated with 250 pM palmitate conjugated with BSA or BSA for 24 hours. In certain experiments, anti-TNFα (0.4 μg/ml, AF-410-NA, R&D systems) or anti-IL-6 (0.025 μg/ml, MAB406; R&D systems) blocking antibody or IgG control (Normal Goat IgG: AB-108-C, Rat IgG1: MAB005; R&D systems) was added to conditioned media. […]

B1: IL-6: cytokine, 406-ML-005 R&D systems (protein, UniProt P08505 25-211, looked up)
Interleukin-6: FPTSQVRRGDFTEDTTPNRPVYTTSQVGGLITHVLWEIVEMRKELCNGNSDCMNNDDALAENNLKLPEIQRNDGCYQTGYNQEICLLKISSGLLEYHSYLEYMKNNLKDNKKDKARVLQRDTETLIHIFNQEVKDLHKIVLPTPISNALLTDKLESQKEWLRTKTIQFILKSLEEFLKVTLRSTRQT
- Ntn1 mRNA in BMDMs: increased Ntn1 mRNA
